± gives the standard deviation of the averaged measurements.
Assay: total protein half-life in vivo (active degradation + dilution); higher = more stable protein
[1] = E. coli NCM3722 delta-clpP delta-lon delta-hslV, growth: N-lim chemostat, doubling time 6 h
[2] = E. coli NCM3722 delta-clpP, growth: N-lim chemostat, doubling time 6 h
[3] = E. coli NCM3722 delta-hslV, growth: N-lim chemostat, doubling time 6 h
[4] = E. coli NCM3722 delta-lon, growth: N-lim chemostat, doubling time 6 h
[5] = E. coli NCM3722 delta-smpB, growth: N-lim chemostat, doubling time 6 h
[6] = wild type E. coli NCM3722, growth: C-lim chemostat, doubling time 3 h
[7] = wild type E. coli NCM3722, growth: C-lim chemostat, doubling time 6 h
[8] = wild type E. coli NCM3722, growth: C-lim chemostat, doubling time 12 h
[9] = wild type E. coli NCM3722, growth: N-lim chemostat, doubling time 6 h
[10] = wild type E. coli NCM3722, growth: N-lim chemostat, doubling time 12 h
[11] = wild type E. coli NCM3722, growth: P-lim chemostat, doubling time 6 h
[12] = wild type E. coli NCM3722, growth: P-lim chemostat, doubling time 12 h

Sequence	total protein half-life in vivo [1] [h]	total protein half-life in vivo [2] [h]	total protein half-life in vivo [3] [h]	total protein half-life in vivo [4] [h]	total protein half-life in vivo [5] [h]	total protein half-life in vivo [6] [h]	total protein half-life in vivo [7] [h]	total protein half-life in vivo [8] [h]	total protein half-life in vivo [9] [h]	total protein half-life in vivo [10] [h]	total protein half-life in vivo [11] [h]	total protein half-life in vivo [12] [h]
MITLWGRNNSTNVKKVLLTLEELELPYEQILAGREFGINHDADFLAMNPNGLVPLLRDDESDLILWESNAIVRYLAAQYGQKRLWIDSPARRAEAEKWMDWANQTLSNAHRGILMGLVRTPPEERDQAAIDASCKECDALFALLDAELAKVKWFSGDEFGVGDIAIAPFIYNLFNVGLTWTPRPNLQRWYQQLTERPAVRKVVMIPVS [P0ACA7]	5.15 ± 0.42	4.47 ± 0.4	5.27 ± 1.5	4.6 ± 0.45	4.53 ± 0.24	2.9 ± 0.27	6.21 ± 0.49	9.3 ± 0.54	4.49 ± 0.48	7.89 ± 0.23	5.74 ± 0.36	12.1 ± 0.25
MSKGTTSQDAPFGTLLGYAPGGVAIYSSDYSSLDPQEYEDDAVFRSYIDDEYMGHKWQCVEFARRFLFLNYGVVFTDVGMAWEIFSLRFLREVVNDNILPLQAFPNGSPRAPVAGALLIWDKGGEFKDTGHVAIITQLHGNKVRIAEQNVIHSPLPQGQQWTRELEMVVENGCYTLKDTFDDTTILGWMIQTEDTEYSLPQPEIAGELLKISGARLENKGQFDGKWLDEKDPLQNAYVQANGQVINQDPYHYYTITESAEQELIKATNELHLMYLHATDKVLKDDNLLALFDIPKILWPRLRLSWQRRRHHMITGRMDFCMDERGLKVYEYNADSASCHTEAGLILERWAEQGYKGNGFNPAEGLINELAGAWKHSRARPFVHIMQDKDIEENYHAQFMEQALHQAGFETRILRGLDELGWDAAGQLIDGEGRLVNCVWKTWAWETAFDQIREVSDREFAAVPIRTGHPQNEVRLIDVLLRPEVLVFEPLWTVIPGNKAILPILWSLFPHHRYLLDTDFTVNDELVKTGYAVKPIAGRCGSNIDLVSHHEEVLDKTSGKFAEQKNIYQQLWCLPKVDGKYIQVCTFTVGGNYGGTCLRGDESLVIKKESDIEPLIVVKK [P0AES0]	5 ± 0.066	4.62 ± 0.17	4.62 ± 0.18	6.12 ± 1.3	4.58 ± 0.23	3 ± 0.4	5.17 ± 0.38	10.6 ± 0.36	4.645 ± 0.024	8.42 ± 0.4	5.85 ± 0.5	11.2 ± 0.72
MKITLLVTLLFGLVFLTTVGAAERTLTPQQQRMTSCNQQATAQALKGDARKTYMSDCLKNSKSAPGEKSLTPQQQKMRECNNQATQQSLKGDDRNKFMSACLKKAA [P0AFM4]	6.55	5.82 ± 1.1						6.86 ± 1.4			5.5 ± 1.8	12.8 ± 2.9
MQCALYDAGRCRSCQWIMQPIPEQLSAKTADLKNLLADFPVEEWCAPVSGPEQGFRNKAKMVVSGSVEKPLLGMLHRDGTPEDLCDCPLYPASFAPVFAALKPFIARAGLTPYNVARKRGELKYILLTESQSDGGMMLRFVLRSDTKLAQLRKALPWLHEQLPQLKVITVNIQPVHMAIMEGETEIYLTEQQALAERFNDVPLWIRPQSFFQTNPAVASQLYATARDWVRQLPVKHMWDLFCGVGGFGLHCATPDMQLTGIEIASEAIACAKQSAAELGLTRLQFQALDSTQFATAQGDVPELVLVNPPRRGIGKPLCDYLSTMAPRFIIYSSCNAQTMAKDIRELPGFRIERVQLFDMFPHTAHYEVLTLLVKQ	5.35 ± 0.065	3.16	4.89 ± 0.31	5.02 ± 0.69	4.32 ± 0.3	3.6	5.35 ± 0.8	> 16	5.51	10.8 ± 1.5	5.7 ± 0.55	11.9 ± 1.2
MRLRKYNKSLGWLSLFAGTVLLSGCNSALLDPKGQIGLEQRSLILTAFGLMLIVVIPAILMAVGFAWKYRASNKDAKYSPNWSHSNKVEAVVWTVPILIIIFLAVLTWKTTHALEPSKPLAHDEKPITIEVVSMDWKWFFIYPEQGIATVNEIAFPANTPVYFKVTSNSVMNSFFIPRLGSQIYAMAGMQTRLHLIANEPGTYDGISASYSGPGFSGMKFKAIATPDRAAFDQWVAKAKQSPNTMSDMAAFEKLAAPSEYNQVEYFSNVKPDLFADVINKFMAHGKSMDMTQPEGEHSAHEGMEGMDMSHAESAH [P0ABJ1]	5.81 ± 1.2		6.43 ± 0.55	6.06 ± 0.16	5.63 ± 0.44		7.01 ± 0.81		6.11 ± 0.29		5.85 ± 0.097	11.98 ± 0.095
MLTSFKLHSLKPYTLKSSMILEIITYILCFFSMIIAFVDNTFSIKIYNITAIVCLLSLILRGRQENYNIKNLILPLSIFLIGLLDLIWYSAFKVDNSPFRATYHSYLNTAKIFIFGSFIVFLTLTSQLKSKKESVLYTLYSLSFLIAGYAMYINSIHENDRISFGVGTATGAAYSTMLIGIVSGVAILYTKKNHPFLFLLNSCAVLYVLALTQTRATLLLFPIICVAALIAYYNKSPKKFTSSIVLLIAILASIVIIFNKPIQNRYNEALNDLNSYTNANSVTSLGARLAMYEIGLNIFIKSPFSFRSAESRAESMNLLVAEHNRLRGALEFSNVHLHNEIIEAGSLKGLMGIFSTLFLYFSLFYIAYKKRALGLLILTLGIVGIGLSDVIIWARSIPIIIISAIVLLLVINNRNNTIN					5.65 ± 0.45	3.42						
MVKLAFPRELRLLTPSQFTFVFQQPQRAGTPQITILGRLNSLGHPRIGLTVAKKNVRRAHERNRIKRLTRESFRLRQHELPAMDFVVVAKKGVADLDNRALSEALEKLWRRHCRLARGS [P0A7Y8]		5.44	4.21	6.46 ± 0.22	3.76 ± 0.17	3.11 ± 0.27	4.82 ± 0.15	8.06	3.63 ± 0.43	7.32 ± 2.1	3.7	7.12 ± 0.64
MNPTRYARICEMLARRQPDLTVCMEQVHKPHNVSAIIRTADAVGVHEVHAVWPGSRMRTMASAAAGSNSWVQVKTHRTIGDAVAHLKGQGMQILATHLSDNAVDFREIDYTRPTCILMGQEKTGITQEALALADQDIIIPMIGMVQSLNVSVASALILYEAQRQRQNAGMYLRENSMLPEAEQQRLLFEGGYPVLAKVAKRKGLPYPHVNQQGEIEADADWWATMQAAG [P0AGJ2]		5.55	5.14 ± 0.28	5.86	4.84 ± 0.18	2.85 ± 0.62	5.7 ± 0.66	10.7 ± 1.5	5.5 ± 0.66	10 ± 0.54	5.8 ± 0.23	12.5 ± 0.089
MDKVLDSALLSSANKRKGILAIGAHPDDIELGCGASLARLAQKGIYIAAVVMTTGNSGTDGIIDRHEESRNALKILGCHQTIHLNFADTRAHLQLNDMISALEDIIKNQIPSDVEIMRVYTMHDADRHQDHLAVYQASMVACRTIPQILGYETPSTWLSFMPQVFESVKEEYFTVKLAALKKHKS	5.73											
MTPFMTEDFLLDTEFARRLYHDYAKDQPIFDYHCHLPPQQIAEDYRFKNLYDIWLKGDHYKWRAMRTNGVAERLCTGDASDREKFDAWAATVPHTIGNPLYHWTHLELRRPFGITGKLLSPSTADEIWNECNELLAQDNFSARGIMQQMNVKMVGTTDDPIDSLEHHAEIAKDGSFTIKVLPSWRPDKAFNIEQATFNDYMAKLGEVSDTDIRRFADLQTALTKRLDHFAAHGCKVSDHALDVVMFAEANEAELDSILARRLAGETLSEHEVAQFKTAVLVFLGAEYARRGWVQQYHIGALRNNNLRQFKLLGPDVGFDSINDRPMAEELSKLLSKQNEENLLPKTILYCLNPRDNEVLGTMIGNFQGEGMPGKMQFGSGWWFNDQKDGMERQMTQLAQLGLLSRFVGMLTDSRSFLSYTRHEYFRRILCQMIGRWVEAGEAPADINLLGEMVKNICFNNARDYFAIELN [P0A8G3]	4.91 ± 0.32	4.13 ± 0.56	4.83 ± 1.5	4.12 ± 0.18	3.84 ± 0.12	2.87 ± 0.56	5.94 ± 0.12	11.9 ± 0.95	4.02 ± 0.48	6.3 ± 0.21	5.26 ± 0.087	9.95 ± 0.88
MESIEQQLTELRTTLRHHEYLYHVMDAPEIPDAEYDRLMRELRELETKHPELITPDSPTQRVGAAPLAAFSQIRHEVPMLSLDNVFDEESFLAFNKRVQDRLKNNEKVTWCCELKLDGLAVSILYENGVLVSAATRGDGTTGEDITSNVRTIRAIPLKLHGENIPARLEVRGEVFLPQAGFEKINEDARRTGGKVFANPRNAAAGSLRQLDPRITAKRPLTFFCYGVGVLEGGELPDTHLGRLLQFKKWGLPVSDRVTLCESAEEVLAFYHKVEEDRPTLGFDIDGVVIKVNSLAQQEQLGFVARAPRWAVAFKFPAQEQMTFVRDVEFQVGRTGAITPVARLEPVHVAGVLVSNATLHNADEIERLGLRIGDKVVIRRAGDVIPQVVNVVLSERPEDTREVVFPTHCPVCGSDVERVEGEAVARCTGGLICGAQRKESLKHFVSRRAMDVDGMGDKIIDQLVEKEYVHTPADLFKLTAGKLTGLERMGPKSAQNVVNALEKAKETTFARFLYALGIREVGEATAAGLAAYFGTLEALEAASIEELQKVPDVGIVVASHVHNFFAEESNRNVISELLAEGVHWPAPIVINAEEIDSPFAGKTVVLTGSLSQMSRDDAKARLVELGAKVAGSVSKKTDLVIAGEAAGSKLAKAQELGIEVIDEAEMLRLLGS	6.33 ± 0.46	5.67 ± 0.88	5 ± 0.61	5.11 ± 0.22	4.28 ± 0.047	2.8 ± 0.23	5.68 ± 1.1	9.65 ± 0.5	4.64 ± 0.15	8.04 ± 0.3	4.92 ± 0.57	8.66 ± 0.66

— the supplement of paper PMC11246515
